Test results: patent publication US20140288149A1

Target: IL-7 receptor (IL-7R), mouse (mouse) (UniProt P16872)
Assay: cell-based or functional assay

UniProt P16872, sequence (P16872 21-459, chain 1 of 2): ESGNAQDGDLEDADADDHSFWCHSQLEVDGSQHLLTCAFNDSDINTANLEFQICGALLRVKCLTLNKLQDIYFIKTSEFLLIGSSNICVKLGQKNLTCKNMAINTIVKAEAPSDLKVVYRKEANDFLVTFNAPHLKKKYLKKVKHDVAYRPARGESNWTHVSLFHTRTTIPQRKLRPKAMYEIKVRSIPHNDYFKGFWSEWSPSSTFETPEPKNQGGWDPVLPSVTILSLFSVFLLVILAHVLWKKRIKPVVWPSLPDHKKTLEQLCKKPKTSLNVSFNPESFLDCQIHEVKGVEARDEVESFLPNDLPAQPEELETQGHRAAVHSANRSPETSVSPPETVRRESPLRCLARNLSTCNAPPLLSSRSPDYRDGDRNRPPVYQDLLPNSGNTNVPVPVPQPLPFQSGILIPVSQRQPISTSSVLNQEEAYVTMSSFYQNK
UniProt P16872, sequence (P34902 23-369, chain 2 of 2, further chain): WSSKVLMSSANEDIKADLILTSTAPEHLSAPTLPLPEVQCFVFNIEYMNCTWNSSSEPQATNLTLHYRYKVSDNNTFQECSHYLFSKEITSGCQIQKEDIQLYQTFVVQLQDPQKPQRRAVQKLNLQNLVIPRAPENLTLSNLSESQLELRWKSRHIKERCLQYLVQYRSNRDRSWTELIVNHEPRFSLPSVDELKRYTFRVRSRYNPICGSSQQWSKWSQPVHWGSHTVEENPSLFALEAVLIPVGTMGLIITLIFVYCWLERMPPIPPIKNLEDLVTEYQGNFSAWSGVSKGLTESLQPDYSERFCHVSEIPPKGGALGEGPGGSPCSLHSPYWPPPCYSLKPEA

percentage of cells positive for pSTAT5 (flow cytometry / ImageStream), WT CD4+ T cells, 30 minutes of culture with IL-7: > 71% | percentage of cells positive for pSTAT5 (flow cytometry / ImageStream), mir-142-/- CD4+ T cells, 30 minutes of culture with IL-7: 8.7%
Substance: recombinant mouse IL-7 (from UniProt P10168 26-154) (ligand)
